Reference: publication PMC4497409 (2015)

Target: hFZD7 (Homo sapiens (Human), UniProt O75084)
Experiment: SPR equilibrium, Norrin immobilised, monomeric CRD analyte

Kd: > 100 µM
B1: Norrin (protein)
chain 1: DSDPRRCMRHHYVDSISHPLYKCSSKMVLLARCEGHCSQASRSEPLVSFSTVLKQPFRSSCHCCRPQTSKLKALRLRCSGGMRLTATYRYILSCHCEECNS
chain 2: B1 chain 1
